In the supplement of paper PMC7125110:
± gives the standard error. Variants at the floor of the assay were thinned out.

B1: glmS ribozyme (parent)
chain: AUAAAAGCGCCAGAACUACAGAAAUGUAGUUGACGAGGAGGAGGUUUAUCGAAUUUUCGGCGGAUGCCUCCAAA

Legend:
Conditions in all cases: with glucosamine-6-phosphate
glucosamine-6-phosphate [1] = variants of: B1; assay: self-cleavage kobs at 160 uM GlcN6P; higher = faster cleavage; RNA array
Summary of the method: (§1)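 Barcoded ribozyme variants were transcribed in situ on sequenced MiSeq chips by E. coli RNA polymerase. At 37 °C, a hybridised Cy3 probe tracked them while glucosamine-6-phosphate (40 μM to 10 mM) in HEPES/KCl/Mg(OAc)2 buffer flowed in and tiles were imaged over ~14 h. Per-tile medians of signals normalised to baseline and to non-cleaving reference variants were fit to one- or two-exponential decays, giving kobs. kcat and KM came from weighted Michaelis–Menten fits across concentrations.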

glucosamine-6-phosphate [2] = variants of: B1; assay: self-cleavage kobs at 640 uM GlcN6P; higher = faster cleavage; RNA array
Summary of the method: as §1

glucosamine-6-phosphate [3] = variants of: B1; assay: self-cleavage kobs at 2500 uM GlcN6P; higher = faster cleavage; RNA array
Summary of the method: as §1

glucosamine-6-phosphate [4] = variants of: B1; assay: self-cleavage kobs at 10000 uM GlcN6P; higher = faster cleavage; RNA array
Summary of the method: as §1

| Variant | self-cleavage kobs at 160 uM GlcN6P (glucosamine-6-phosphate [1]) [s⁻¹] | self-cleavage kobs at 640 uM GlcN6P (glucosamine-6-phosphate [2]) [s⁻¹] | self-cleavage kobs at 2500 uM GlcN6P (glucosamine-6-phosphate [3]) [s⁻¹] | self-cleavage kobs at 10000 uM GlcN6P (glucosamine-6-phosphate [4]) [s⁻¹] |
| --- | --- | --- | --- | --- |
| U55G U56G U69C | 0.000134 ± 3.4e-05 | 0.000115 ± 2.6e-05 | 0.000201 ± 4.3e-05 | – |
| A6G G13C G32A G66U | – | < 1e-05 | < 1e-05 | – |
| C50G A53U C68G | 0.000236 ± 6.7e-05 | 0.000668 ± 0.00018 | – | – |
| C50G A64G | 0.000518 ± 0.00017 | 0.000105 ± 2.1e-05 | – | 2.48e-05 ± 9.4e-06 |
| C50A G66A C70G | 5.52e-05 ± 2.4e-05 | 0.000243 ± 6.1e-05 | 0.000169 ± 4.8e-05 | – |
| A6U C70A | – | 0.000142 ± 6.1e-05 | 2.49e-05 ± 9.6e-06 | – |
| G7A C8G A14U U65G | – | < 1e-05 | < 1e-05 | < 1e-05 |
| A6G G62U C71G | – | < 1e-05 | – | – |
| C8A A53U G60U | – | < 1e-05 | < 1e-05 | – |
| G7C G9U A39G U45A G59A G60A C67U C68U | – | < 1e-05 | – | – |
| A6G G9A G41U A42U C70A | – | < 1e-05 | < 1e-05 | – |
| A6U A14G G60C | – | < 1e-05 | – | – |
| A48G C50A C61G C67A C68U | 8.22e-05 ± 2.2e-05 | 8.1e-05 ± 3.2e-05 | 9.85e-05 ± 2.5e-05 | – |
| U54G U56A | 0.000806 ± 0.00016 | 0.00244 ± 0.00071 | 0.012 ± 0.0054 | 0.0311 ± 0.013 |
| G7U C58G | – | < 1e-05 | – | – |
| G66A C67A C70U | 0.000193 ± 4.7e-05 | 0.000467 ± 0.0001 | 0.000861 ± 0.0002 | – |
| A6G U30G G38U U55G | – | < 1e-05 | < 1e-05 | – |
| A6U A12G A14U | – | < 1e-05 | – | – |
| A6G A52G G60A | – | < 1e-05 | < 1e-05 | – |

| Variant | self-cleavage kobs at 160 uM GlcN6P (glucosamine-6-phosphate [1]) [s⁻¹] | self-cleavage kobs at 640 uM GlcN6P (glucosamine-6-phosphate [2]) [s⁻¹] | self-cleavage kobs at 2500 uM GlcN6P (glucosamine-6-phosphate [3]) [s⁻¹] | self-cleavage kobs at 10000 uM GlcN6P (glucosamine-6-phosphate [4]) [s⁻¹] |
| --- | --- | --- | --- | --- |
| A6C C10G G41U | – | < 1e-05 | < 1e-05 | – |
| C50U U56A | < 1e-05 | – | – | – |
| A1G A12U A64C | – | 0.000103 ± 3.6e-05 | 0.000485 ± 0.00019 | 0.000643 ± 0.00015 |
| G7U C10G G13C G44A U69G | – | < 1e-05 | – | – |
| C8A C16U C50U U56G | – | < 1e-05 | – | – |
| A6U C8A C11U C50G | – | 0.000402 ± 0.00018 | 0.000125 ± 4.7e-05 | – |
| C61G U65A | < 1e-05 | < 1e-05 | < 1e-05 | < 1e-05 |
| A6G U31G A53G | – | 4.09e-05 ± 1.9e-05 | 0.000162 ± 3.5e-05 | – |
| C8G A42U | – | < 1e-05 | – | < 1e-05 |
| G7A G37A G66U | – | < 1e-05 | < 1e-05 | – |
| G7A A39G U49C U69A | – | < 1e-05 | < 1e-05 | < 1e-05 |
| A48C G51C | < 1e-05 | < 1e-05 | – | – |
| C50A U54G C67G | 0.000319 ± 0.00012 | 0.000125 ± 4.8e-05 | 0.000101 ± 4.6e-05 | – |
| C8A A15G A36C | – | < 1e-05 | – | – |
| G7A A48C U69G | – | < 1e-05 | < 1e-05 | – |
| C50G A52G C67U | 0.000143 ± 5.1e-05 | 0.000875 ± 0.00027 | 7.71e-05 ± 2.8e-05 | – |
| A6U C11A A33G U47C U49A G51U A53U G59U | – | < 1e-05 | < 1e-05 | – |
| A6G G9A G29A G32U G40U | – | < 1e-05 | – | – |
| A6U G29C A48U | – | < 1e-05 | – | – |

| Variant | self-cleavage kobs at 160 uM GlcN6P (glucosamine-6-phosphate [1]) [s⁻¹] | self-cleavage kobs at 640 uM GlcN6P (glucosamine-6-phosphate [2]) [s⁻¹] | self-cleavage kobs at 2500 uM GlcN6P (glucosamine-6-phosphate [3]) [s⁻¹] | self-cleavage kobs at 10000 uM GlcN6P (glucosamine-6-phosphate [4]) [s⁻¹] |
| --- | --- | --- | --- | --- |
| C8A U47C G51A | – | < 1e-05 | < 1e-05 | – |
| C50G U65C | 4.48e-05 ± 1.6e-05 | 0.000255 ± 0.0001 | 4.37e-05 ± 2.1e-05 | – |
| G7U G32C C34U U55C | – | < 1e-05 | < 1e-05 | – |
| A6G A15C C34A A36U | – | < 1e-05 | < 1e-05 | – |
| A6G G43U U69G | – | < 1e-05 | – | – |
| A6U G43U C61U C71U | – | < 1e-05 | < 1e-05 | – |
| A6U C8A C50U | – | < 1e-05 | – | – |
| A6C G9A G37A G51C | – | < 1e-05 | – | – |
| G7U A39G A48U | – | < 1e-05 | – | – |
| A6C G13U C50G G62A C68U | – | 0.000276 ± 0.0001 | 0.000212 ± 9.7e-05 | – |
| G7U G43U U45A C58A | – | < 1e-05 | < 1e-05 | – |
| G7A A39C U56G C68G | – | < 1e-05 | < 1e-05 | – |
| A6U G35U G43U | – | < 1e-05 | < 1e-05 | – |
| A6C G41A U55C U65G | – | < 1e-05 | – | – |
| G7A A12C U49C G62A | – | < 1e-05 | < 1e-05 | – |
| C50G G59U C70U | 4.6e-05 ± 2.1e-05 | 9.86e-05 ± 2.5e-05 | 8.37e-05 ± 3.5e-05 | – |
| A6G U56C C61G | – | < 1e-05 | < 1e-05 | – |
| G7U A15U G44C | – | < 1e-05 | < 1e-05 | – |
